Source: publication doi:10.1101/2023.07.21.550003 (bioRxiv, 2023)

Target: T1, canonical HER2, extracellular region (residues 22-587) (human, UniProt P04626)
T1 construct: HER2 (ERBB2), human, extracellular region spanning residues 22-587, amplified from the complete cDNA clone BC156755 / P04626; Cloned in a modified p3XFLAG-CMV-25 vector; also called ERBB2; human epidermal growth factor receptor 2; source: HEK293F, transfected, purified from supernatant (HisTrap, Superdex200); not shown: FLAG, N-terminal, kept
Experiment: flow cytometry on cells; yeast clones displaying scFv (anti-c-myc-FITC for display) incubated with purified Flag-tagged HER2 variants at room temperature for 2 hours; anti-Flag iFluor 647
Settings: one partner purified

B1: Clone 32 (scFv displayed on yeast) (scFv, V domains shown)
VH: EVQLVESGGGLVQPGGSLRLSCAASGFTFGEYTMDWVRQAPGKGLEWVADVNPNSGGSIYNKRFKGRFTLSVDRSKNTLYLQMNSLRAEDTAVYYCARNLGPSFYFDYWGQGTLVTVSS
VL: DIQMTQSPSSLSASVGDRVTITCKASQDVSIGVAWYQQKPGKAPKLLIYSASYRYTGVPSRFSGSGSGTDFTLTISSLQPEDFATYYCQQYYIYPYTFGQGTKVEIK
notes: as the heavy-chain variable region of m4 (Pertuzumab, PDB 1S78), with the changes of clone 32 among the 14 library positions; linker: three repeats of G4S between the VH and VL; as the light-chain variable region of m4 (Pertuzumab, PDB 1S78); The methods also say the library was built 'based on the AAL160 template antibody'; source: S. cerevisiae EBY100, yeast surface display (pCTCON2)
- binding result: binds
